This is an account of results in patent US12630600B2 (MEDIMMUNE LIMITED, priority 2022, dated 2026).

Starred links: 1 amine or outer side, 2 acyl side, 3 side chain; linkers in the order of their positions; H or OH if unused. Non-standard residues stand in square brackets, D forms with d. Groups on a side chain read outwards from the residue. No end group written: not given here. *: point of attachment. C20 diacid = O=C(O)CCCCCCCCCCCCCCCCCCC(=O)*; C18 diacid = O=C(O)CCCCCCCCCCCCCCCCC(=O)*; γGlu = O=C(O)[C@H](CCC(=O)[*:2])N[*:1]; αMeF = C[C@](N)(Cc1ccccc1)C(=O)O; (PEG)2 = polyethylene glycol 2; PEG4 = NCCOCCOCCOCCOCCC(=O)O; AEEA = NCCOCCOCC(=O)O; Aib = CC(C)(N)C(=O)O

For one experiment, the target named is human glucagon receptor (human, UniProt P47871). Nature of the experiment: cell-based or functional assay.
In a further experiment the target is human GLP-1 receptor (human, UniProt P43220). Nature of the experiment: cell-based or functional assay.

For the molecule H[Aib]HGS[αMeF]TSDVSK[αMeF]LDSQAAK([AEEA-AEEA-γGlu-γGlu-C20 diacid])D[αMeF]VQ[Aib]IANT-NH2 [Peptide 256], in the experiment with human glucagon receptor, the “hGluc-R EC50 (pM)” value worked out at 1310 pM. In addition, in the experiment with human GLP-1 receptor, the “hGLP-1R EC50 (pM)” value was 346 pM.

B1: Peptide 244 (peptide)
peptide: H[Aib]HGS[αMeF]TSDVSK[αMeF]LDSRAAK([AEEA-AEEA-γGlu-γGlu-C20 diacid])D[αMeF]VQSIANT-NH2
modifications: N-terminus assumed
SMILES: CC[C@H](C)[C@H](NC(=O)[C@H](CO)NC(=O)[C@H](CCC(N)=O)NC(=O)[C@@H](NC(=O)[C@](C)(Cc1ccccc1)NC(=O)[C@H](CC(=O)O)NC(=O)[C@H](CCCCNC(=O)COCCOCCNC(=O)COCCOCCNC(=O)CC[C@H](NC(=O)CC[C@H](NC(=O)CCCCCCCCCCCCCCCCCCC(=O)O)C(=O)O)C(=O)O)NC(=O)[C@H](C)NC(=O)[C@H](C)NC(=O)[C@H](CCCNC(=N)N)NC(=O)[C@H](CO)NC(=O)[C@H](CC(=O)O)NC(=O)[C@H](CC(C)C)NC(=O)[C@](C)(Cc1ccccc1)NC(=O)[C@H](CCCCN)NC(=O)[C@H](CO)NC(=O)[C@@H](NC(=O)[C@H](CC(=O)O)NC(=O)[C@H](CO)NC(=O)[C@@H](NC(=O)[C@](C)(Cc1ccccc1)NC(=O)[C@H](CO)NC(=O)CNC(=O)[C@H](Cc1c[nH]cn1)NC(=O)C(C)(C)NC(=O)[C@@H](N)Cc1c[nH]cn1)[C@@H](C)O)C(C)C)C(C)C)C(=O)N[C@@H](C)C(=O)N[C@@H](CC(N)=O)C(=O)N[C@H](C(N)=O)[C@@H](C)O
Regarding B1, in the experiment with human glucagon receptor, the “hGluc-R EC50 (pM)” value is 420 pM. The “hGLP-1R EC50 (pM)” value with human GLP-1 receptor was 143 pM.
Regarding H[Aib]HGS[αMeF]TSDVSK[αMeF]LDSRAAK([PEG4-γGlu-γGlu-C18 diacid])D[αMeF]VQ[Aib]IANT-NH2 [Peptide 263], the “hGluc-R EC50 (pM)” value with human glucagon receptor was 64.6 pM. The “hGLP-1R EC50 (pM)” value in the experiment with human GLP-1 receptor is 25.4 pM.
The like results for H[Aib]HGS[αMeF]TSDVSK[αMeF]LDSR[Aib]AK([AEEA-γGlu-C18 diacid])DFVESIANT-NH2 [Peptide 253] were, in that order, 53.1 pM and 75.5 pM.
The like results for H[Aib]HGS[αMeF]TSDVSK[αMeF]LDSRAAK([(PEG)2-(PEG)2-γGlu-γGlu-C20 diacid])D[αMeF]VQ[Aib]IANT-NH2 [Peptide 264] were, in that order, 297 pM and 69.5 pM.
Consider H[Aib]HGS[αMeF]TSDVSK[αMeF]LDSR[Aib]AK([AEEA-AEEA-γGlu-C18 diacid])DFVESIANT-NH2 [Peptide 251], for which the “hGluc-R EC50 (pM)” value in the experiment with human glucagon receptor came to 248 pM. Also, the “hGLP-1R EC50 (pM)” value with human GLP-1 receptor came out at 79.8 pM.
The like results for H[Aib]HGS[αMeF]TSDVSK[αMeF]LDSRAAK([AEEA-γGlu-AEEA-C18 diacid])D[αMeF]VQ[Aib]IANT-NH2 [Peptide 259] were, in that order, 34.8 pM and 19.1 pM.

B2: Peptide 246 (peptide)
peptide: H[Aib]HGS[αMeF]TSDVSK[αMeF]LDSRAAK([AEEA-AEEA-γGlu-γGlu-C20 diacid])D[αMeF]VESIANT-NH2
modifications: N-terminus assumed
SMILES: CC[C@H](C)[C@H](NC(=O)[C@H](CO)NC(=O)[C@H](CCC(=O)O)NC(=O)[C@@H](NC(=O)[C@](C)(Cc1ccccc1)NC(=O)[C@H](CC(=O)O)NC(=O)[C@H](CCCCNC(=O)COCCOCCNC(=O)COCCOCCNC(=O)CC[C@H](NC(=O)CC[C@H](NC(=O)CCCCCCCCCCCCCCCCCCC(=O)O)C(=O)O)C(=O)O)NC(=O)[C@H](C)NC(=O)[C@H](C)NC(=O)[C@H](CCCNC(=N)N)NC(=O)[C@H](CO)NC(=O)[C@H](CC(=O)O)NC(=O)[C@H](CC(C)C)NC(=O)[C@](C)(Cc1ccccc1)NC(=O)[C@H](CCCCN)NC(=O)[C@H](CO)NC(=O)[C@@H](NC(=O)[C@H](CC(=O)O)NC(=O)[C@H](CO)NC(=O)[C@@H](NC(=O)[C@](C)(Cc1ccccc1)NC(=O)[C@H](CO)NC(=O)CNC(=O)[C@H](Cc1c[nH]cn1)NC(=O)C(C)(C)NC(=O)[C@@H](N)Cc1c[nH]cn1)[C@@H](C)O)C(C)C)C(C)C)C(=O)N[C@@H](C)C(=O)N[C@@H](CC(N)=O)C(=O)N[C@H](C(N)=O)[C@@H](C)O
In the case of B2, in the experiment with human glucagon receptor, the “hGluc-R EC50 (pM)” value is 557 pM. In addition, the “hGLP-1R EC50 (pM)” value with human GLP-1 receptor was found to be 320 pM.

B3: Peptide 261 (peptide)
peptide: H[Aib]HGS[αMeF]TSDVSK[αMeF]LDSRAAK([PEG4-γGlu-C18 diacid])D[αMeF]VQ[Aib]IANT-NH2
modifications: N-terminus assumed
SMILES: CC[C@H](C)[C@H](NC(=O)C(C)(C)NC(=O)[C@H](CCC(N)=O)NC(=O)[C@@H](NC(=O)[C@](C)(Cc1ccccc1)NC(=O)[C@H](CC(=O)O)NC(=O)[C@H](CCCCNC(=O)CCOCCOCCOCCOCCNC(=O)CC[C@H](NC(=O)CCCCCCCCCCCCCCCCC(=O)O)C(=O)O)NC(=O)[C@H](C)NC(=O)[C@H](C)NC(=O)[C@H](CCCNC(=N)N)NC(=O)[C@H](CO)NC(=O)[C@H](CC(=O)O)NC(=O)[C@H](CC(C)C)NC(=O)[C@](C)(Cc1ccccc1)NC(=O)[C@H](CCCCN)NC(=O)[C@H](CO)NC(=O)[C@@H](NC(=O)[C@H](CC(=O)O)NC(=O)[C@H](CO)NC(=O)[C@@H](NC(=O)[C@](C)(Cc1ccccc1)NC(=O)[C@H](CO)NC(=O)CNC(=O)[C@H](Cc1c[nH]cn1)NC(=O)C(C)(C)NC(=O)[C@@H](N)Cc1c[nH]cn1)[C@@H](C)O)C(C)C)C(C)C)C(=O)N[C@@H](C)C(=O)N[C@@H](CC(N)=O)C(=O)N[C@H](C(N)=O)[C@@H](C)O
Consider B3, for which, in the experiment with human glucagon receptor, the “hGluc-R EC50 (pM)” value came out at 29.4 pM. For the same molecule, the “hGLP-1R EC50 (pM)” value with human GLP-1 receptor was found to be 16.2 pM.
For H[Aib]HGS[αMeF]TSDVSK[αMeF]LDSRAAK([AEEA-γGlu-AEEA-γGlu-C18 diacid])D[αMeF]VQ[Aib]IANT-NH2 [Peptide 260], in the experiment with human glucagon receptor, the “hGluc-R EC50 (pM)” value is 76.9 pM. In addition, the “hGLP-1R EC50 (pM)” value with human GLP-1 receptor amounted to 33.1 pM.
The like results for H[Aib]HGS[αMeF]TSDVSK[αMeF]LDSRAAK([AEEA-γGlu-AEEA-C20 diacid])D[αMeF]VQ[Aib]IANT-NH2 [Peptide 265] were, in that order, 131 pM and 71.2 pM.
The like results for H[Aib]HGS[αMeF]TSDVSK[αMeF]LDSR[Aib]AK([γGlu-C18 diacid])DFVESIANT-NH2 [Peptide 254] were, in that order, 125 pM and 102 pM.
The like results for H[Aib]HGS[αMeF]TSDVSK[αMeF]LDSRAAK([(PEG)2-(PEG)2-γGlu-γGlu-C18 diacid])D[αMeF]VQ[Aib]IANT-NH2 [Peptide 258] were, in that order, 93.1 pM and 34 pM.
In the case of H[Aib]HGS[αMeF]TSDVSK[αMeF]LDSRAAK([AEEA-γGlu-C18 diacid])D[αMeF]VQ[Aib]IANT-NH2 [Peptide 262], in the experiment with human glucagon receptor, the “hGluc-R EC50 (pM)” value was 11.7 pM. Further, in the experiment with human GLP-1 receptor, the “hGLP-1R EC50 (pM)” value was 13 pM.
